According to publication PMC11206218 (Science Advances, 2020):

Biological target: T1, S. cerevisiae Ggc1(C222S) with C-terminal His6-tag (S. cerevisiae, UniProt P38988 1-300, C222S)
T1 sequence (looked up): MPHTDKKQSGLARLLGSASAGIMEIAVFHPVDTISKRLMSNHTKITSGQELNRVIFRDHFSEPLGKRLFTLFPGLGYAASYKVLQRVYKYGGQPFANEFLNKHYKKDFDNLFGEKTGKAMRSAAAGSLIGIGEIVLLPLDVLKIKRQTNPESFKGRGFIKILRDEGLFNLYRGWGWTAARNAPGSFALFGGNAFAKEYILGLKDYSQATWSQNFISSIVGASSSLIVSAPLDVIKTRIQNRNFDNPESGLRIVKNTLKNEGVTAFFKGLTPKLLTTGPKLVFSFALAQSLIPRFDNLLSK
Assay: pull-down

binding result: binds
B1: TIM8·13(Tim8_(K30F,S36L)) mutant chaperone complex (complex, S. cerevisiae)
chain 1: MSSLSTSDLASLDDTSKKEIATFLEGENSFQKVQMLIHQFTNICFKKCVESVNDSNLSSQEEQCLSNCVNRFLDTNIRIVNGLQNTR
chain 2: GGLSSIFGGGAPSQQKEAATTAKTTPNPIAKELKNQIAQELAVANATELVNKISENCFEKCLTSPYATRNDACIDQCLAKYMRSWNVISKAYISRIQNASASGEI
